Target: T1, CD179a (VpreB1) component of the pre-BCR surrogate light chain, on B-ALL cells (human, UniProt P12018 20-145)
T1 sequence (looked up): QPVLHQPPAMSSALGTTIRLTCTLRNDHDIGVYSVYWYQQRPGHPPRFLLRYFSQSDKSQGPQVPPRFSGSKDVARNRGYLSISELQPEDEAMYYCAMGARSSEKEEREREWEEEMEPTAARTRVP
Experiment: cell-based or functional assay

B1: calicheamicin-based antibody-drug conjugate (ADC) against CD179a (antibody, human IgG1, kappa, V domains shown)
VH: EVQLVESGGGLVKPGGSLRLSCAASGFTFSNFEMNWVRQAPGKGLEWVSGISSNGRYINYADSVKGRFTISRDNAKNSLYLQMNSLRAEDTAVYYCARVVDFDQDYNGFDYWGQGTLVTVSS
VL: DIQLTQSPSFLSASVGDRVTITCRASQGISTDLNWYQQKPGKAPKLLIYAASNLESGVPSRFSGSGSGTEFTLTISSLQPEDFATYYCQQSYNWPYTFGGGTKVEIKR
modifications: AcBut-calicheamicin linker-payload, DAR of 5:1, conjugated residues not stated
  IC50 (the inhibitory concentration that causes 50% of cells to die), Nalm6 B-ALL cell line: 0.059 µg/mL

From patent publication US20250249120A1 (CHILDREN S HEALTH CARE D B A CHILDREN S MINNESOTA, published 2025)
